Read-outs that look alike come from different tables or passages of the source.
B1: A6 scFv (scFv)
scFv: VQLLESGGGLVQPGGSPRLSCAASGFTFSGYWMHWVRQAPGKGLEWVSEISGSGDSTHYGDSVKGRFTISRDNSKNTLYLQMNSLRAEDTAVYYCARGRNGSLDYWGQGTLVTVSSGSAGGGGSGGGGSGGGGSDIVLTQPPSASGTPGQRVTISCTGGRFNIGDYAVNWYQQLPGKAPKLLIYDNDRRPSGVSDRFSGSKSGTSASLAISGLRSEDEADYYCAAWDDSLDGLVFGGGTQLTV
B2: F2 scFv (scFv)
scFv: VQLLESGGGLVQPGGSLRLSCAASGFTFSGYWMHWVRQAPGKGLEWVSEISGSGDSTHYGDSVKGRFTISRDNSKNTLYLQMNSLRAEDTAVYYCARGRNGSLDYWGQGTLVTVSSGSAGGGGSGGGGSGGGGSDIVLTQPPSASGTPGQRVTISCSGTSSNIGADYDVHWYQQLPGKAPKLLIYDNNKRPSGVSDRFSGSKSGTSASLAISGLRSEDEADYYCAAWDSSLSSVVFGGGTQLTV
B3: E6 scFv (scFv)
scFv: VQLLESGGGLVQPGGSLRLSCAASGFTFSGYWMHWVRQAPGKGLEWVSEISGSGDSTHYGDSVKGRFTISRDNSKNTLYLQMNSLRAEDTAVYYCARGRNGSLDYWGQGTLVTVSSGSAGGGGSGGGGSGGGGSDIVLTQPPSASGTPGQRVTISCSGSSSNIGAGYDVHWYQQLPGTAPKLLIYGNTNRPSGVSDRFSGSKSGTSASLAISGLRSEDEADYYCQSFDSTLSGPVFGGGTKVTV

Experiments:
[1] = target: T1, FRHSVV peptide, the common epitope of mutant p53 (biotin conjugate) (human); test: BIAcore SPR
[2] = target: T1, FRHSVV peptide, the common epitope of …

Binder	Kd [1] [nM]	Kd [2] [nM]
B1	23	
B2		11
B3		4.6e-05
